Reference: the RNAGym collection of RNA variant scans (doi:10.7554/elife.90254)

B1: OR4K15 (parent)
chain: GUUAACGGUCAUAGGCCAUGGAAACUAGGAGCACCAUUUCGCUGCCAGUGAAGAAAUGAACAAAGAAAAUCUGGGCCAGGCAGGCAUCAAAAGAAAUAGUCUUGCGCUCAACCAGAAAGUCUGUAAUCAUUUUAAGGGUA

Variants of: B1
Experiment: self-cleavage, relative activity (ratio to wild type); higher = more cleavage; in vitro, sequencing; the parent is a self-cleaving ribozyme
Work on U12A A67G yielded a self-cleavage of 1.56.
Variant U12A A59G has a self-cleavage of 1.26.
With A13G A62G the self-cleavage was 1.25.
A11U U97C showed a self-cleavage of 0.56.
Variant A13G A98U has a self-cleavage of 1.29.
For A11G G137A, the self-cleavage was 0.53.
Variant A11U A63G has a self-cleavage of 0.86.
With A11G G93A the self-cleavage was 2.04.
Variant A13G A125U has a self-cleavage of 0.88.
With U12G A82U the self-cleavage was 0.3.
Variant U12C A78U has a self-cleavage of 0.34.
Variant U12C A51U has a self-cleavage of 1.38.
U12C C105U gave a self-cleavage of 0.23.
A11G A52C showed a self-cleavage of 0.82.
With A11G A118U the self-cleavage was 0.2.
A11U A117G gave a self-cleavage of 1.41.
U12C U87A showed a self-cleavage of 0.96.
In the case of U12A A13G, the self-cleavage is reported as 1.28.
For A13G U70C, the self-cleavage was 0.87.
With A13G G136A the self-cleavage was 0.95.
A13G A47G gave a self-cleavage of 0.13.
Work on A11G A134C yielded a self-cleavage of 0.5.
Work on A11G A134G yielded a self-cleavage of 0.88.
With A11G U120C the self-cleavage was 0.35.
For U12C U130C, the self-cleavage was 0.95.
In the case of U12C A23G, the self-cleavage is reported as 0.76.
In the case of A11U U49C, the self-cleavage is reported as 1.38.
U12G A33G gave a self-cleavage of 1.04.
For A13G A86U, the self-cleavage was 1.21.
Work on A11U U87A yielded a self-cleavage of 1.75.
A11U A51C showed a self-cleavage of 1.16.
For A11U A51U, the self-cleavage was 0.87.
U12C A22U gave a self-cleavage of 0.66.
For U12C A69G, the self-cleavage was 1.68.
In the case of A11G U49C, the self-cleavage is reported as 0.39.
Variant U12C U103C has a self-cleavage of 1.41.
A11G U38C showed a self-cleavage of 0.65.
A11G U38A showed a self-cleavage of 0.86.
Work on A13G A82G yielded a self-cleavage of 0.47.
Variant A11G C88U has a self-cleavage of 1.54.
Variant U12C U37G has a self-cleavage of 1.92.
Work on A11U A96G yielded a self-cleavage of 1.31.
In the case of U12A U122C, the self-cleavage is reported as 1.26.
Work on U12C A52G yielded a self-cleavage of 0.83.
Variant C10U U124A has a self-cleavage of 0.36.
With A11U A52U the self-cleavage was 1.54.
With A11U A52G the self-cleavage was 1.25.
For A13G A118U, the self-cleavage was 0.59.
A13G A118G gave a self-cleavage of 0.96.
A11G A94U showed a self-cleavage of 1.2.
In the case of A11G A94G, the self-cleavage is reported as 0.95.
With A11G A22G the self-cleavage was 1.04.
Work on C10U U131C yielded a self-cleavage of 0.47.
Work on A11C A22G yielded a self-cleavage of 0.94.
Variant A11U U108G has a self-cleavage of 0.08.
Work on A11G U108A yielded a self-cleavage of 0.03.
For A13G A78U, the self-cleavage was 0.6.
U12A U49C showed a self-cleavage of 1.59.
In the case of U12A U49A, the self-cleavage is reported as 0.48.
A11G U124C showed a self-cleavage of 0.34.
Work on A11G U124A yielded a self-cleavage of 0.66.
In the case of U12C A54G, the self-cleavage is reported as 1.22.
Work on U12C A54U yielded a self-cleavage of 1.51.
C10U U87C showed a self-cleavage of 1.08.
In the case of A13G C71U, the self-cleavage is reported as 0.46.
With U12C A91G the self-cleavage was 0.8.
In the case of A11U A23G, the self-cleavage is reported as 0.87.
With A13G A23U the self-cleavage was 1.32.
U12C A90U showed a self-cleavage of 0.94.
Variant A11U U124C has a self-cleavage of 1.14.
For A13G C40U, the self-cleavage was 1.03.
For A13G U133C, the self-cleavage was 1.84.
For U12A A30U, the self-cleavage was 1.11.
With U12C A117G the self-cleavage was 1.33.
U12C A126G showed a self-cleavage of 0.55.
A13G U39C gave a self-cleavage of 0.92.
With A13G U39G the self-cleavage was 1.52.
A11G G31C gave a self-cleavage of 1.04.
With A11G A30G the self-cleavage was 1.08.
A11G A27C gave a self-cleavage of 0.61.
U12A A82U showed a self-cleavage of 0.3.
For U12C U49C, the self-cleavage was 0.44.
Work on U12C U49G yielded a self-cleavage of 0.74.
For A11U U122C, the self-cleavage was 0.19.
